Paper PMC11825280

Target: rVSV-EBOV/Mayinga GP (EBOV/H.sap-tc/COD/76/Yambuku-Mayinga), thermolysin-cleaved (Ebola virus (EBOV)) (UniProt Q05320)
Test: ELISA

Chain of rVSV-EBOV/Mayinga GP (EBOV/H.sap-tc/COD/76/Yambuku-Mayinga), thermolysin-cleaved (Ebola virus (EBOV)) (Q05320 33-676): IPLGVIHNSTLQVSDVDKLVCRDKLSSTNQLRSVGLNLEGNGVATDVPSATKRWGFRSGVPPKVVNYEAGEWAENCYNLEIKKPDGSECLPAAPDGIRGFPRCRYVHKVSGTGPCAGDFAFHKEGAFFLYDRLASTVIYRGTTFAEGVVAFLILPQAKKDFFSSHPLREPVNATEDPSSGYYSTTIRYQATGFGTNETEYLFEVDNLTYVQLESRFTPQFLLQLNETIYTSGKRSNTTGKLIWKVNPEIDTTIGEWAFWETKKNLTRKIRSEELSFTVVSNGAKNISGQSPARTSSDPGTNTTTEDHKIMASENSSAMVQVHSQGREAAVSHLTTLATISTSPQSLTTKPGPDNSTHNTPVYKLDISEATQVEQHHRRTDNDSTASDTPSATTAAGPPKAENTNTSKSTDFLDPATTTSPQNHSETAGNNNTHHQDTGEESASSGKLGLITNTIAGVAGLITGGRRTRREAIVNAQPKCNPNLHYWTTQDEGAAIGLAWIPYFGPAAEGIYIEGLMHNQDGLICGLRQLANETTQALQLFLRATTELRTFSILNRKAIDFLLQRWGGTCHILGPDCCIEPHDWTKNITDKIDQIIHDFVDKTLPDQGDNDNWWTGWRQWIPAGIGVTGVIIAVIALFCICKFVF

## soluble human NPC1 domain C (NPC1-C) (from UniProt O15118 23-1278) (domain or fragment)
  binding AUC: 277
